Assay results reported in PMC13247719.
Read-outs that look alike come from different tables or passages of the source.

Columns and labels:
Assay in all cases: SPR
[1] = target: T1, LIN28A CSD (mouse, UniProt Q8K3Y3 16-136)
T1 sequence: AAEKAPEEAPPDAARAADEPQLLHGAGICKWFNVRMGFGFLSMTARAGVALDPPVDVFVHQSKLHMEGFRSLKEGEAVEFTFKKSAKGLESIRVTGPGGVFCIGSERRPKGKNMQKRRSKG

[2] = target: T2, LIN28A Y140A (mouse, UniProt Q8K3Y3 1-209, Y140A)
T2 sequence: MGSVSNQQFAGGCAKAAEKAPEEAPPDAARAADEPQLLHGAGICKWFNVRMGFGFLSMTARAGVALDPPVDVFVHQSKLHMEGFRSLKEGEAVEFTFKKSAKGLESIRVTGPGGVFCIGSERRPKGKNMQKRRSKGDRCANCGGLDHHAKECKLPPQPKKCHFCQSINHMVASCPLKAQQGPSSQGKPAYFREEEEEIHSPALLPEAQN

[3] = target: T3, LIN28A H148A (mouse, UniProt Q8K3Y3 1-209, H148A)
T3 sequence: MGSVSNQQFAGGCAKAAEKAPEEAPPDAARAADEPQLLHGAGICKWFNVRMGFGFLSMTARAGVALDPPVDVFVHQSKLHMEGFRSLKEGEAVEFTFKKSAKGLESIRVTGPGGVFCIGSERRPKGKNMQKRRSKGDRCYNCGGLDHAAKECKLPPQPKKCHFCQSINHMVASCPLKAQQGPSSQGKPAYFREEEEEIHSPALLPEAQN

[4] = target: T4, LIN28A H162A (mouse, UniProt Q8K3Y3 1-209, H162A)
T4 sequence: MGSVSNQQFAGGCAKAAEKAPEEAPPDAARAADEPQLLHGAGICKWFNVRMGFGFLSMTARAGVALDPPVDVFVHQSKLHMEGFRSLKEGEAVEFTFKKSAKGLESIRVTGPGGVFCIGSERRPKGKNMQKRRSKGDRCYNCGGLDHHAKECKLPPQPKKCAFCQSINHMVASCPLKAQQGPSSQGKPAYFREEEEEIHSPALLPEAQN

[5] = target: T5, LIN28A (mouse, UniProt Q8K3Y3 1-209)
T5 sequence: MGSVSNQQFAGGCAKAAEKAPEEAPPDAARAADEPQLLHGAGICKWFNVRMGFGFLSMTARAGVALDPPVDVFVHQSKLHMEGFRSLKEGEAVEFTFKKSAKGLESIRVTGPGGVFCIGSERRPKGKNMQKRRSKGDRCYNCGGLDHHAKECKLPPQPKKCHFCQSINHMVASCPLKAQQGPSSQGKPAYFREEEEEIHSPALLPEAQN

[6] = target: T6, LIN28A I167A (mouse, UniProt Q8K3Y3 1-209, I167A)
T6 sequence: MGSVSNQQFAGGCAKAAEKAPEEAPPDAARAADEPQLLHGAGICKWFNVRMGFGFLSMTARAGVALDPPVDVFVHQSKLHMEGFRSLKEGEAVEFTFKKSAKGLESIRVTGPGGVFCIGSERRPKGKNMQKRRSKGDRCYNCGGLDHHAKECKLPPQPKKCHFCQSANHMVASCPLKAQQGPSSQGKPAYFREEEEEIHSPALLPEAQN

[7] = target: T5, LIN28A; remark: listed apart in the source

Binder: GGGGUAGUGAUUUUACCCUGUUUAGGAGAU (structured_RNA) [preE-let-7f-1 biotin]
- Kd [1]: 808 nM
- Kd [2]: 410 nM
- Kd [3]: 276 nM
- Kd [4]: 382 nM
- Kd [5]: 92 nM
- Kd [6]: 99.5 nM

Binder: GGGGUAGUGAUUUUACCCUGUUUAUGAGAU (structured_RNA) [preE-let-7f-1 UGAG]
- Kd [7]: 387 nM
